# Assay: Insulin pharmacokinetics during hyperinsulinemic-euglycemic clamp
# Assay type: in vivo
# Conditions: 24 clamps in 2 swine
# Source text: One CSII was initiated with commercial insulin lispro (U-100, Eli Lilly and Company, Indianapolis, IN, USA) at 0.4 units/hour, and one with preservative-free saline or diluent via 2 commercial insulin pumps. This strategy was used to mimic real-world conditions and avoid potential occlusion of the catheters, while comparing occlusion rates between insulin and saline infusions. Postoperatively, the swine were monitored twice daily for signs of pain/discomfort, hypoglycemia, and infection. Glucose concentrations (trends) were also monitored using two real-time continuous glucose sensors (CGM G4 Dexcom Inc, San Diego, CA, USA) placed laterally on the lower abdomen.
# Once the fasting animal was comfortably positioned in the sling apparatus, endogenous insulin secretion was suppressed using an octreotide infusion. An initial octreotide bolus dose (7.2 µg/kg) was administered 60 min prior to starting the clamp, followed by a maintenance dose of (3.6 µg/kg/h). […]
# After beginning the clamp study on the first swine, a second team ensured that duplicate laboratory and anesthesia equipment were set up and calibrated in the other half of the procedure room. […] Blood glucose measurements and insulin samples were obtained at 5 and 10 min intervals for 240 min, while other data, such as vital signs and gas concentrations, were recorded continuously.
substance,measurement,setting,value
insulin lispro,time for insulin concentrations to return to near baseline,"after bolus insulin 0.15 IU/kg via CSII catheter, sedated farm swine",≤ 90 min
same,insulin Cmax,"sedated female farm swine, bolus insulin 0.15 IU/kg via CSII catheter (subcutaneous, abdomen), endogenous insulin suppressed with octreotide, glucose clamped at 85 mg/dL, mean",0.1085 nM

# Source: publication PMC12567051, “Performing Dual Glucose Clamp Experiments in Sedated Farm Swine: A Practical Method” (Methods and Protocols, 2025)
